Molecular target: wild-type CCR1 expressed on HEK293 cells (human) (UniProt P32246)
Sequence (P32246 whole entry): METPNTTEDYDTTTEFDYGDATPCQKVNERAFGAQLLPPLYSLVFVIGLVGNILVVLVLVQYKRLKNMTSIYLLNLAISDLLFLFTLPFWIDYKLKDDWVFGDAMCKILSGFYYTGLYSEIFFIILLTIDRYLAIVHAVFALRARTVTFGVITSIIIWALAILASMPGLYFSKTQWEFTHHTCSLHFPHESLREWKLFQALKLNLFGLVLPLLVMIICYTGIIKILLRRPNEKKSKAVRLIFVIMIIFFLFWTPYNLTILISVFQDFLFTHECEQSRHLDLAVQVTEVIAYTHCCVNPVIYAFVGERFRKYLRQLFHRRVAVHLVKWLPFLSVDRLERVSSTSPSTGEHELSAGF

B1: CCL14 full length (1-74) (ligand)
chain: TKTESSSRGPYHPSECCFTYTTYKIPRQRIMDYYETNSQCSKPGIVFITKRGHSVCTNPSDKWVQDYIKDMKEN
For B1, the EC50 for calcium flux in CCR1-transfected HEK293 cells was > 1000 nM.

— paper PMC2706832
